Test: soluble on expression in E. coli; label from the status in PepcDB or PDB records
For “MKDLLQAQQKLIPDLIDKMYKRFSILTTISKNQPVGRRSLSEHMDMTERVLRSETDMLKKQDLIKVKPTGMEITAEGEQLISQLKGYFDIYADDNRLSEGIKNKFQIKEVHVVPGDADNSQSVKTELGRQAGQLLEGILQEDAIVAVTGGSTMACVSEAIHLLPYNVFFVPARGGLGENVVFQANTIAASMAQQAGGYYTTMYVPDNVSETTYNTLLLEPSVINTLDKIKQANVILHGIGDALKMAHRRQSPEKVIEQLQHHQAVGEAFGYYFDTQGQIVHKVKTIGLQLEDLESKDFIFAVAGGKSKGEAIKAYLTIAPKNTVLITDEAAAKIILE”, the “soluble on expression in E. coli” value was “not soluble”.
With “MKDNNEVLKLFIVSDSIGETAQRMIHATLTQFPDLTQVEIKKFPYIKDEQEFLNVLQLAKEQNAIVATTLVSESFNALGHQFANEHQIPYVDYMSELISIIKQHTHAKPLMESGALRKLNDEYFKRIEAIEYSVKYDDGKHFTDIGEADALIVGVSRTSKTPLSMYLANKGYKIANIPLVPEVAIPDNVFQQKNLKVFGLTASPNYIANIRRNRAETLGLSSESNYNSLERIKKELSYAEEVFRKLNATVINTEYKSIEESAFYIEKFLAKRLEHHHHHH” the “soluble on expression in E. coli” value was “not soluble”.
With “MKDQLGFRIVLCSAVFIILTQNRALADLDSESHEVNSESVGEEQWEMVQRKGMQFTLNGQPFYVNGFNTYWMMTLAADNSTRGKVTEVFQQASAVGMTVGRTWAFNDGQWRALQKSPSVYDEEVFKALDFVLSEARKYKIRLILSLVNNWDAYGGKAQYVKWGNASGLNLTSDDDFFTNPTLRNFYQSHVRTVLNRVNTFTNITYKNDPTIFAWELMNEPRCPSDPSGDKLQSWIQEMAVFVKSLDAKHLVEIGLEGFYGPSAPARTRFNPNPYAAQVGTDFIRNNQVLGIDFASVHVYPDSWISPAVSNSFLEFTSSWMQAHVEDAEMYLGMPVLFTEFGVSAHDPGFNTSFRDMMLNTVYKMTLNSTRKGGAGAGSLVWQVFPQGAEFMDDGYAVYLTRAHTASKIISLQSKRLAIFNSLCSWRCRWGCKKKNQTALDALLSHDEL” the “soluble on expression in E. coli” value was “soluble”.
In the case of “MKDWLDEIHWNADGLVPAIAQDHETGRVLMMAWMNREALALTASENRAIYWSRSRGKLWRKGEESGHVQKLHELRLDCDADVVILMVEQVGGIACHTGRESCFYRVFENGAWKTVDPVLKDPDAIYEHAGHHHE”, the “soluble on expression in E. coli” value is reported as “not soluble”.
In the case of “MKEHHIPKNSIITVAGTVGVGKSTLTKTLAKRLGFKTSLEEVDHNPYLEKFYHDFERWSFHLQIYFLAERFKEQKTIFEAGGGFVQDRSIYEDTGIFAKMHADKGTMSKVDYKTYTSLFEAMVMTPYFPHPDVLIYLEGDLENILNRIEQRGREMELQTSRSYWEEMHTRYENWISGFNACPVLKLRIEDYDLLNDENSIENIVDQIASVIHDNQKKLEHHHHHH”, the “soluble on expression in E. coli” value is reported as “not soluble”.
With “MKEKVVSLAQDLIRRPSISPNDEGCQQIIAERLEKLGFQIEWMPFNDTLNLWAKHGTSEPVIAFAGHTDVVPTGDENQWSSPPFSAEIIDGMLYGRGAADMKGSLAAMIVAAEEYVKANPNHKGTIALLITSDEEATAKDGTIHVVETLMARDEKITYCMVGEPSSAKNLGDVVKNGRRGSITGNLYIQGIQGHVAYPHLAENPIHKAALFLQELTTYQWDKGNEFFPPTSLQIANIHAGTGSNNVIPAELYIQFNLRYCTEVTDEIIKQKVAEMLEKHNLKYRIEWNLSGKPFLTKPGKLLDSITSAIEETIGITPKAETGGGTSDGRFIALMGAEVVEFGPLNSTIHKVNECVSVEDLGKCGEIYHKMLVNLLDS” the “soluble on expression in E. coli” value was “soluble”.
With “MKETEQVSEAPHGLEGAWLDLTNRVRVSGDTVEACSAFSIGPPRCRWLLQATDRGVNCAALDHYVPHICGTHTETVYHIAHHRYIKRAVCEIPFFRFHKARIQVCTAKIACTEQVLPSADTDYPCLEPNDLIVGPSALNRAPRYTRAQDSTIEALILIVVGPDGTSDWRDGKLDDRPPYLTPAAIESLATRYPNMRHLLTNLPSVDRRRDGGLVRSHRAFFATDFAGDGTPSESPQKTITELLRVPPDWQLYDDAEGVVCISLAPIEGLDAIPSSVYFKSH” the “soluble on expression in E. coli” value was “not soluble”.
In the case of “MKEVIAQNAKLSADDLKEILPKANKLEDFAFEKNEDSTISEVFQAKNGSENEGYIIKVSPKGFNGPIDMVVAIDKNREISGVKVLSQAETPGLGAKVEESSFSEKFKGLTIEDNIKIVKTSPSSQGEIQGITGATISSNAVSSGINDAISFYKENVLGEDLSKEKILNLSKINLEGDLKELTIELEEGIDKVSIVSNGEKEIGYAIEASEVGMYEEKPIKFALGISTGGIITGVQIIDHKETAGLGDLIEDENFLNSFIGVSSLDKLSVKENTNEIDLSVYGEVVNVDSISGATKSSMAIIKGITNVINFYNNNLSLEHHHHHH”, the “soluble on expression in E. coli” value is reported as “soluble”.

— the DeepSol protein solubility set
